{"source": "the DeepSol protein solubility set", "data": [{"experiment": "soluble on expression in E. coli; label from the status in PepcDB or PDB records", "values": [{"sequence": "MKKLAIVIPAYKVDFFETVLFSLAQQTCKDFTVYIGEDCSRDDFKSLIEQYSKQLDIVYRRFEVNFGGHDLVAQWNRCIQLTQNEPWLWLFSDDDIMGPRCVEYFFNTIAIDNGAFDIYHFDVKIVDCENQIVRIPTVYPSVIDSETFYRRKASARLDSFVVEYIFLRDIYNCTGGFQHFDLAWGSDIATWVKIGADKGIKTISGDYVYWRKSKKNITPNMDNKMVLRKLTADIEFTHWINEFFHKSSVYRFTKYAFFRLVVHYSQAISKSQIRLLLDKAVGKNIISFNDAFIINWTYRFIQLAKRVKDVLYFLEHHHHHH", "soluble on expression in E. coli": "soluble"}, {"sequence": "MGSDKIHHHHHHMRKMAVQKLPEKDFFAPLKAWKFLVRKPVTIEVPNKIRREASERYRGFHVNDWGKCIGCGTCAKICPTDAITMVEVPDLTQEDGKLPQRPVIDYGRCSFCALCVDICTTGSLKMTREYIHISEDPEDFIFMPTDKGLNAKKGLYEFGKAPLGWVRDENSELLDLERIEMPVEPPEVRIKSFIEIVKGYSREQAMQEAARCVECGVCTYTCPEHMDIPQYIKSVYEDNLEEGLRWLYRTNPLSMVCGRVCTHRCETACSVGVRGEPVAIQWLKRYIVDSIPLERYGEILDIKPERKGKSVGIIGSGPAGLAAAYFLATMGYDVTIYESESKPGGVMRYGIPKYRLPDEALDKDIAFIEALGVKILLNTRVVQDVSFEDVRKRHDVVFLATGFGLGRSTGVPGTDHPDVKQALPLLKMIRDYLRGDGPKPPVPERLVVIGGGNVAMDISRSMARLQFMEYGRVNVQVLSLEGCFEDMPADMEEIEEALEEGIVINPGWGPMEVVIENDRIKGVKFKKCVSVFDGEGRFNPQFDEKEQIFVEADMVVEAIGQAPDYSYLPEEIRSKLEFFRGRIKTNEYNQTSVEWLFAGGDIVHGPDIIHGIADGYAAAKGIDMYLRKEK", "soluble on expression in E. coli": "not soluble"}, {"sequence": "MGSDKIHHHHHHMSKMLTLAVRAHDVGTKISPVELAKKIAETNITSIQFALGISYPEYASAAVLSPGLGSQLKNIFEDEKITISVLSCYINLIHPDLEEREKRLHQFETYIRYDSMFGAKIVATETGSIYETIYYTEDNYTEEAYEEVLFSVRRLCREAEKYGIIVGIEPGINHPIHTIEKMQRLIDEVASTNLGIILDPTNLIRVDIDKTYLEIVEEAFECFGEKIVAFHLKDFIIRNQQIFPVAIGEGQVPLTETIQFLNKHKPGLFTIFEETPFEKIASAYQKVSQYHSI", "soluble on expression in E. coli": "not soluble"}, {"sequence": "MKKDILEKGAILQRDRETYAIAPHIPGGITDTATLRKLCDVADKYGVKELKLTSAQRIALFGVKEEDLDAIWSDLDQQPGAAIGLCVRSVKICPGTTWCKRGVQDSVSLGLKIDAIYHAMELPNKMKMGISGCMLNCAETMLKDVGVVGTPKGWRIYVGGNAGARPRIGDLLVELGPDEDKVLAVIADLVEWYRSSGSEQRLGRVVEQMGFDAFKTAVLGAKATP", "soluble on expression in E. coli": "not soluble"}, {"sequence": "SLCHVTRPDAVVMEIEVDAKANGEDCLNKVCRKLGIIEVDYFGLQFSGSKGENLWLNLRNRISQQMDNLTPCRLRLRVKFFVEPHLILQEQTRHLFFMHVKEDLHRGHLRMCSEQAQELSALLAQAEFGDYNQNTAKYWYTELCGSEPNQTTINSIIAKHKALEGLSQASVEYQALQLVSSLEHYGVEWHWARDAEAQRLAIGVGPEGIAICRDDFSLVNRISYPIIQIATQSGKSVYLTVTKESSDSVVLLFKLISN", "soluble on expression in E. coli": "soluble"}, {"sequence": "MRILFVGPPLYGLLYPVLSLAQAFRVNGHEVLIASGGKFAQKAAEAGLVVFDAAPGFDSEAGYRRQEALRKENNIGTKMGNFSFFSEEMTDPLVAFAGQWRPDLIVYPPLGVVGPLIAAKYDIPVVMQTVGFGHTPWHIKGVTKSLSNAYRRHGVSAPPRDLAWIDVTPPSMSILQNDGEPVISMQYVPYNGGAVWEEWWERTPDRKRLLVSLGTVKPMVDGLDLISWVMDSAGEVDAEIILHLPANARSDLRSLPPNVRLVDWLPMGVFLNGADGFIHHGGAGNTLTALHAGIPQIVFGQGADRPVNARAVVERGCGIIPGKSGLTSSMINTFLGNRALREASQEVAAEMAAQPCPTEVAKKLIAMLQHGLEHHHHHH", "soluble on expression in E. coli": "not soluble"}, {"sequence": "FPSQDQYLAGLLETPEQKIRAYVLFAHCFTCGKDVAAASRISRFLVQHGFAVFRFDFTGLGNSDGDFANTNFSSNTEDLVSAAYFLEQNYEAPQLLIGHSLGGAAVLAMASQLPKVKGVVTIGAPYEASHVIHNFDAHLEKIDQSGSAKVSLGSREFTIKKQFLDDLRNQTTEHIQHLNKALLVLHSPIDLTVDISDAEKIYKAAKHPKSFVSLDTADHLLSKSIDSEYVAQTISGWASRYIP", "soluble on expression in E. coli": "not soluble"}, {"sequence": "MAHHHHHHMVSVDTSTRRFLEMFCDFDAKRCKLCNETFLQWHIHANGIPHAGREGMLLELVRPYCGTPDELIEMWWQRLNSCAAFHRIPGLSHDNPHERKRRLLYLLKVLKDRGILVETFNVSDNQSTNSARSWEFERLEFVGDNVVKYVLNNIISCAFPPHEGGTKGKMTCFQFVMDGNDGLARGYDHLDLQQLASSPRVVSKFKSDIVETLFAELQMYLWSTQHDIGTCPLVFPFTKDIYTLRALVQHVLYELGIELFLYHIRHINGMLQRVMRENHLQFVKADSALKPRAGARTGSLGVSTRRGDWSDDDDDYDCPQSYGTPAVSAPTAALMKVRSQRTHVQGTGAALFFASTNYDNFKRVVPIGGLLPRPFARQDLSVIPNHMPHLRSDGAMTRRMRRVGNAGWSTLHATATALTTLESVADGLALSAETTPRVGSEPVRLSVPRLKDEELIPELI", "soluble on expression in E. coli": "not soluble"}, {"sequence": "MTNNAVLQLRAERLARATRPFLARGNRVRRCQRCLLPLKSCLCDTLTPSQAKSRFCLVMFDTEPMKPSNTGRLIADILPDTAAFQWSRTEPPQALLELVQHPDYQPIVVFPASYAGEAREVISTPPAGKPPLFIMLDGTWPEARKMFRKSPYLDHLPVISVDLSRLSAYRLREIHAEGQYCTAEVAIALLDLAGDTEAATSLGEHFTRFKTRYLAGKTQHPGNVTALEHHHHHH", "soluble on expression in E. coli": "soluble"}, {"sequence": "MEGAVIKVIGLGGAGNNAVNRMIEAGLSGVEFIAANTDAQVLAKSLADHRIQLGEKLTRGLGAGANPEIGEKAALEAEDLIAEALEGADLVFITAGMGGGTGTGSAPVVADIAKRLGALTVAVVTRPFSFEGPKRMRAAEEGIKKLKERVDAMVVVQNDRLLSAVDKKMTLKDAFLIADRVLYHGVKGITDVINLPGLINVDFADVKALLEGAGQVLMGIGAGRGENRVEEAAKSAIHSPLLERSIEGAKRLLLNVVGSEELSLMEAAEVVERIREATGHEDVDILYGVTYDERAQDELRVILIAAGFAESTVVPRPARPVDFPTGHVDLTNYDIPAFIRYGDGDYPPRRGN", "soluble on expression in E. coli": "soluble"}, {"sequence": "MGSDKIHHHHHHMKIGVFVPIGNNGWLISTHAPQYMPTFELNKAIVQKAEHYHFDFALSMIKLRGFGGKTEFWDHNLESFTLMAGLAAVTSKIQIYATAATLTLPPAIVARMASTIDSISGGRFGVNLVTGWQKPEYDQMGMWPGDDYFASRYDYLTEYVQVLRDLWGTGRSDFKGDYFTMNDCRVSPRPSQPMKVICAGQSDAGMAFSAQHADYNFCFGKGVNTPTAFAPTAARMMQAAEKTGRDVGSYVLFMVIADETDEAARAKWEHYKAGADEEALAWLTEQSQKDTRSGSDTNVRQMADPTSAVNINMGTLVGSYASVARMLDEVASVPGTDGVLLTFDDFLAGIDAFGERIQPLMRCRNHIASVTREVA", "soluble on expression in E. coli": "not soluble"}, {"sequence": "DKKLAIVIHDNPDPDAISSGLALKEIAKSLGVEASILYHGRIGHQENKAFVNLLGIDLGKMEEHDLKDFDEIALIDCSIPGVNNMVPPNSYVGIVIDHHPPGETEIKAEYIDIRPNFGATATIMTKYLQQLNINISKTLATALLYGIRTDTQDFKRKTDPADLSAASYLYPLSNHGILDQLEQPSMAI", "soluble on expression in E. coli": "not soluble"}, {"sequence": "MRYRPVIGLEIHVQLSTKTKAFCSCPADVFELPPNTAICPVCTGQPGALPVPNEEMIRFAVKTALALNCKIHKYSRFDRKNYFYPDLPKGYQISQYFYPIATEGFLEIDGDEGRKKVRIRRLHLEEDAGKLVHEGDSITRASYSLVDMNRCGVPLIEIVTEPDISSPREARVFMEKLRSIVRYLGVSTGDMEKGALRCDANISVVDTETGRQSNRVEVKNMNSFRFVERALEYEFERIVKAMERGEDVERETRGWDMATKITVSMRGKEEESDYRYFPEPDIPPVVLSDEYLEEVKKELPELPDEKAERFMREYGLPEYDAKVLTSSKELAEFFEECVKVVNRPKDLSNWIMTEVLRELNERNIEITESKLTPQHFADLFKLMDEGKISIKIAKEIFPEVFETGKMPSQIVEEKGLTQINDEKLIEELVKKAMEQNPKAVQDYKSGKKKAAGFFVGYVMRETKGKANPELTNRIIQKLLEGE", "soluble on expression in E. coli": "soluble"}, {"sequence": "MPKLSAFYYQVLEDFGYIYDSSITVPPVPVPVWPYTLDYKISHECKSGTCPSRTFPGVWEVPLNTHYVEGYEGGHCPYLDQCVLHNLDEEEVFQWLQEDFSRYYEQNKAPYMMPFHTNWFQTKPLENGLHKFLDWALELLEHHHHHH", "soluble on expression in E. coli": "not soluble"}, {"sequence": "MGSDKIHHHHHHMKCSLGLEKCPDDTLRCFPKIEQPFGIVIFGASGDLTKRKLIPALNRLFEAGILPERFFVLGAARTKMDDKKFRSRFDANPDFLEHCSYISVDYQDPESFKQLKNTIETLIKRIDSSNLVFYLAVPPDLYIPILENLSKTGLNEKPARVVIEKPFGKDLESARRLEDTLQKYFQEDQIFRIDHYLGKETVQNILVFRFANFIFEEIWNNKFVDHVQITMAEDIGVEHRAGYFENVGLLRDIFQNHMLQILALIAMEPPSSFNGENFRNERVKLLRSIRPFPVEELESWIVRGQYGRGVVNGKEVPAYREEPGVAKDSNVETFVAMKLFIDNWRWSGVPFYLRSGKRLPKKITEVAVVFKKIPHSIFAGVPSDELEPNTIVFTLQPNEGISLEFQVKRPCPGMFPQLLSMDFRYEDYFGVKLPDAYERLLLDVILGDPTLFMRRDDLEVSWELLDPVLKAWENDPVRFSPYVYPAGTWGPREADLLIERDGRKWRKL", "soluble on expression in E. coli": "not soluble"}, {"sequence": "MFVDQVKISLKAGDGGNGITAYRREKYVPFGGPAGGDGGKGASVVFEVDEGLRTLLDFRYQRHFKASKGENGQSSNMHGKNAEDLVLKVPPGTIIKNVETDEVLADLVEDGQRAVVAKGGRGGRGNSRFATPRNPAPDFSEKGEPGEELDVSLELKLLADVGLVGFPSVGKSTLLSIVSKAKPKIGAYHFTTIKPNLGVVSTPDQRSFVMADLPGLIEGASDGVGLGHQFLRHVERTKVIVHMIDMSGSEGREPIEDYKVINQELAAYEQRLEDRPQIVVANKMDLPESQDNLNLFKEEIGEDVPVIPVSTITRDNIDQLLYAIADKLEEYKDVDITVEEEESVGINRVLYKHTPSQDKFTISRDDDGAYVVSGNAIERMFKMTDFNSDPAVRRFARQMRSMGIDDALRERGCKNGDIVRILGGEFEFVE", "soluble on expression in E. coli": "not soluble"}]}]}
